Experimental data published in the supplement of paper PMC9876800.

System: peptide library, one residue held at a place counted from the S/T acceptor
Assay: relative phosphorylation of the sub-library (ratio to the mean residue at this position); human; higher = residue favoured
How it was run: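 Each biotinylated degenerate peptide sub-library fixed one residue at one position around a central Ser/Thr and was incubated with a purified recombinant kinase, a human or orthologue construct, in 384-well plates. The 90 min reactions, under kinase-specific conditions, contained 50 μM peptide and 50 μM ATP spiked with γ-32P-ATP. Phosphorylation was read by phosphorimaging spots on streptavidin membranes and quantifying them by densitometry. Relative sub-library phosphorylation expresses each value as a ratio to the mean residue at that position.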

AURKB, construct: Full length, sequence (Q96GD4 whole entry, looked up): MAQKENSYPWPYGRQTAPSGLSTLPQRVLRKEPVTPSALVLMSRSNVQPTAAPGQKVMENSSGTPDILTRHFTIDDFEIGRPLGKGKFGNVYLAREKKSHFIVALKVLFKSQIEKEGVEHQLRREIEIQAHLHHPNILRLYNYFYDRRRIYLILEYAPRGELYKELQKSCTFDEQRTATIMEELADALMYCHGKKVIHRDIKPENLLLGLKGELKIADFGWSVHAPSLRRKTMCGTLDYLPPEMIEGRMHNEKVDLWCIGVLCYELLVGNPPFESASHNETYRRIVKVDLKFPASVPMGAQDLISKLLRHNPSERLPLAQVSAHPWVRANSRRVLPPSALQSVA
STK10, construct: aa18-317, sequence (O94804 18-317, looked up): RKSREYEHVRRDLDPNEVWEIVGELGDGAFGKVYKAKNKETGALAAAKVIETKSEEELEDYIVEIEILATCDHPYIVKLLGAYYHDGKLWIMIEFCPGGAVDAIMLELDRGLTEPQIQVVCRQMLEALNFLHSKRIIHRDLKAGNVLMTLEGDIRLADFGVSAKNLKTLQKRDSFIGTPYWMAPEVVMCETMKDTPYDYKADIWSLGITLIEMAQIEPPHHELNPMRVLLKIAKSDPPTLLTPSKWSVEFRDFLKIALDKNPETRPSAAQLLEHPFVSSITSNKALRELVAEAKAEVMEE
CDKL1, construct: aa2-304, sequence (Q00532 2-304, looked up): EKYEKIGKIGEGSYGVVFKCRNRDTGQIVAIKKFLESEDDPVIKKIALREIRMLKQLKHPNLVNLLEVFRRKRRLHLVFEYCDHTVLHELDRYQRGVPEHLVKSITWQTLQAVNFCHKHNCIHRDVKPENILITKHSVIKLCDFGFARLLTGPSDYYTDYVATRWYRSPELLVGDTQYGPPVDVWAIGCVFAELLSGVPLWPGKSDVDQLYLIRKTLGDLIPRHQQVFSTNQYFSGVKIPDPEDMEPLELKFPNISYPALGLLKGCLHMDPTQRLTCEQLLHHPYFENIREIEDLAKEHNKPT
NEK4, construct: Full length, sequence (P51957 whole entry, looked up): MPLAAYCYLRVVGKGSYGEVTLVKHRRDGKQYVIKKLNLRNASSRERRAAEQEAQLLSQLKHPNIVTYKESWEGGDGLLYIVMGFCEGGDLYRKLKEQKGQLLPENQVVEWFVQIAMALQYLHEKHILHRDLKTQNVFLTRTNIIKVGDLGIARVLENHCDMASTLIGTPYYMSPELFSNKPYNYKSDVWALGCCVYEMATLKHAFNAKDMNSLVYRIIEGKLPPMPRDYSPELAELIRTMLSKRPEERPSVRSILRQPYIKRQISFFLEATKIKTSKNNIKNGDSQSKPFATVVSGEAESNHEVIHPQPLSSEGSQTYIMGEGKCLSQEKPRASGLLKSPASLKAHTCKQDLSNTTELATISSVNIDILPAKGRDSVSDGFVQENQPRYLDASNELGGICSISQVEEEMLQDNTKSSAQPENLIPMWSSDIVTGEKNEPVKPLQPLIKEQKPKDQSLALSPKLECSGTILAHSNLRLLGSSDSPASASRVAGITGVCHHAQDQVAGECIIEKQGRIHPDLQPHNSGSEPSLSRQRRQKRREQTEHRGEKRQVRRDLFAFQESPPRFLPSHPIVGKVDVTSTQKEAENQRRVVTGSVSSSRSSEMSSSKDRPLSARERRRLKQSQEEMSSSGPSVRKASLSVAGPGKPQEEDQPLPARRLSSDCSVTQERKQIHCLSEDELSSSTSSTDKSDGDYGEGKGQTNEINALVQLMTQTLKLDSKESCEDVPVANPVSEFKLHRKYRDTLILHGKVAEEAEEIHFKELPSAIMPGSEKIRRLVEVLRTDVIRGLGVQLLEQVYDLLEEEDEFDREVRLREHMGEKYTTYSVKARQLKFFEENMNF

AURKB, construct: Full length (from UniProt Q96GD4)
relative phosphorylation
Details	at +1	at +2	at +3	at +4	at -1	at -2	at -3	at -4	at -5
A fixed	0.803	0.959	0.784	0.784	0.651	0.28	0.727	1.01	1.08
D fixed	0.673	0.507	0.523	0.986	0.489	0.176	0.485	0.629	0.734
E fixed	0.611	0.427	0.498	0.727	0.433	0.183	0.422	0.653	0.511
F fixed	1.34	1.05	1.35	0.856	0.678	0.247	0.633	0.724	0.867
G fixed	1.11	1.59	1.3	1.06	0.553	0.381	0.954	1.17	1.24
H fixed	0.933	1.6	1.51	1.09	0.971	0.542	1.02	1.03	1.06
I fixed	1.21	0.911	0.957	0.869	0.735	0.217	0.553	0.709	0.855
K fixed	0.78	0.77	0.955	1.13	2.06	2.28	2.2	1.8	1.81
L fixed	1.49	0.948	1.14	0.989	1.23	0.25	0.554	0.738	0.779
M fixed	1.59	0.864	0.901	1.06	0.97	0.243	0.661	0.829	0.786
N fixed	1.33	1.04	0.981	1.08	0.788	0.377	0.784	0.844	0.966
P fixed	0.212	1.07	1.1	1.32	0.917	0.327	0.9	0.953	0.985
Q fixed	1.18	1.13	0.923	1.32	1.08	0.528	0.775	0.849	0.911
R fixed	1.05	0.972	0.968	1.01	2.98	10.2	4.37	2.72	1.9
V fixed	0.82	0.897	0.844	0.823	0.827	0.207	0.564	0.687	0.762
W fixed	0.932	1.05	1.23	1.17	0.605	0.287	0.735	0.855	0.931
Y fixed	0.922	1.22	1.05	0.734	1.04	0.276	0.665	0.798	0.831
pThr fixed	0.88	0.581	0.555	1.08	0.413	0.314	0.591	0.691	0.716
pTyr fixed	0.59	0.435	0.847	0.784	0.461	0.272	0.62	0.556	0.66

NEK4, construct: Full length (from UniProt P51957)
relative phosphorylation
Details	at +1	at +2	at +3	at +4	at -1	at -2	at -3	at -4	at -5
A fixed	0.695	0.961	0.797	0.821	1.32	0.985	1.18	1.02	0.983
D fixed	0.169	0.409	0.375	0.693	0.63	0.601	0.422	0.811	0.797
E fixed	0.153	0.368	0.341	0.66	0.638	0.505	0.416	0.733	0.662
F fixed	1.03	0.851	1.73	1.03	0.868	1.16	1.64	1.14	1.21
G fixed	0.921	0.795	0.91	1.16	1.25	1.16	1.2	1.32	1.04
H fixed	0.775	1.2	1.1	1.08	1.02	1.02	0.998	1.05	1.03
I fixed	1.63	0.625	0.899	0.69	0.583	0.8	0.658	0.754	0.822
K fixed	0.974	2.01	0.977	1.56	1.4	0.902	0.985	1.17	1.16
L fixed	2.19	0.939	1.23	0.996	1.06	1.61	1.9	1.12	0.79
M fixed	2.2	1.04	1.07	0.932	1.36	1.47	1.72	0.969	0.966
N fixed	0.592	0.86	0.652	0.92	0.935	1.43	0.674	0.913	0.962
P fixed	0.176	0.993	1.03	1.28	0.374	0.588	0.973	0.912	1.22
Q fixed	1.02	0.971	0.842	1.08	1.09	1.01	0.766	0.916	0.983
R fixed	1.17	2.43	1.25	1.31	1.77	1.07	0.953	1.04	1.32
V fixed	0.929	0.838	0.74	0.653	0.666	0.677	0.573	0.835	0.878
W fixed	1.44	0.722	1.62	1.25	0.925	1.18	1.02	1.31	1.11
Y fixed	0.937	0.986	1.44	0.891	1.09	0.832	0.921	1	1.08
pThr fixed	0.423	0.506	0.526	0.476	0.332	0.64	0.735	0.793	0.867
pTyr fixed	0.248	0.588	0.557	0.506	0.752	1.11	0.806	0.755	1.01

CDKL1, construct: aa2-304 (from UniProt Q00532)
relative phosphorylation
Details	at +1	at +2	at +3	at +4	at -1	at -2	at -3	at -4	at -5
A fixed	1.42	0.825	0.9	0.849	0.875	0.874	0.724	0.985	0.964
D fixed	0.679	0.924	0.793	0.858	0.693	0.715	0.534	0.874	0.771
E fixed	0.721	0.803	0.747	0.766	0.67	0.739	0.538	0.917	0.809
F fixed	0.888	0.829	0.924	0.916	0.835	0.724	0.531	0.934	1.21
G fixed	1.15	0.764	0.865	1.04	1.56	1.01	0.617	1.01	1
H fixed	1.02	1.22	1.13	1.07	1.02	0.727	0.593	0.926	0.987
I fixed	0.732	0.881	0.865	0.856	0.644	0.96	0.537	0.883	0.961
K fixed	1.25	1.52	1.43	1.31	1.61	0.898	0.852	1.22	1.08
L fixed	0.755	0.898	0.928	0.939	0.988	0.909	0.549	0.909	0.976
M fixed	0.862	0.841	0.9	0.953	1.19	0.774	0.549	0.937	0.96
N fixed	0.871	1.05	1	1.08	1.01	0.778	0.585	0.925	0.919
P fixed	1.92	0.774	0.978	0.98	1.02	3.55	0.704	1.05	0.918
Q fixed	0.894	1.03	1.05	1.07	1.05	0.856	0.707	1.08	0.972
R fixed	1.33	2.02	1.63	1.47	1.44	1.21	7.35	1.54	1.63
V fixed	0.744	0.888	0.944	0.83	0.736	0.873	0.54	0.967	0.896
W fixed	0.819	0.808	0.899	1.09	0.768	0.71	0.539	0.944	0.889
Y fixed	0.941	0.931	1.02	0.907	0.884	0.698	0.55	0.899	1.06
pThr fixed	0.811	0.892	0.844	0.824	0.778	0.799	0.576	0.837	0.737
pTyr fixed	0.652	0.663	0.733	0.692	0.717	0.75	0.786	0.876	0.726

STK10, construct: aa18-317 (from UniProt O94804)
relative phosphorylation
Details	at +1	at +2	at +3	at +4	at -1	at -2	at -3	at -4	at -5
A fixed	0.6	0.853	0.817	0.9	0.811	0.667	0.873	0.975	1.15
D fixed	0.168	0.371	0.456	0.637	0.412	0.51	0.598	0.695	0.905
E fixed	0.167	0.225	0.409	0.563	0.304	0.216	0.598	0.776	0.605
F fixed	1.23	0.634	0.846	0.816	0.911	2.13	1.02	0.85	0.846
G fixed	0.564	1.09	1.09	1.21	0.703	0.543	0.936	1.35	1.28
H fixed	1.06	1.48	1.26	1.04	1.41	1.07	1.25	1.16	1.15
I fixed	1.47	0.48	0.568	0.666	0.539	0.384	0.505	0.718	0.672
K fixed	1.04	2.28	1.92	1.7	1.99	1.86	2.07	1.62	1.81
L fixed	2.1	0.629	0.809	0.876	1.18	0.559	0.612	0.767	0.654
M fixed	1.83	0.729	0.72	0.827	1.12	0.918	0.759	0.858	0.768
N fixed	0.757	1.12	0.961	1.17	1.13	0.879	1.07	0.837	1.15
P fixed	0.321	1.05	1.62	1.48	0.584	0.492	0.85	1.14	1.09
Q fixed	0.763	0.952	0.954	1.17	1.03	0.777	1.02	0.956	0.82
R fixed	1.18	3.13	2.06	1.63	1.96	1.72	2.01	1.58	1.73
V fixed	0.956	0.56	0.613	0.724	0.6	0.485	0.475	0.795	0.814
W fixed	1.49	0.732	0.987	0.896	0.93	0.881	1.24	1.05	0.769
Y fixed	1.3	0.688	0.91	0.699	1.38	2.91	1.11	0.877	0.788
pThr fixed	0.44	0.484	0.586	0.537	0.274	0.358	0.612	0.857	0.871
pTyr fixed	0.362	0.314	0.667	0.476	0.382	0.491	0.938	0.816	0.855
